How the values were obtained:
[1] = molecular target: gB on infectious CMV (neutralization assays) (human cytomegalovirus); assay: cell-based or functional assay
CMV virions = molecular target: T1, CMV virions; assay: virion ELISA
T1 construct: also called whole virions

B1: 3-25 (antibody, V domains shown)
VH: QVQLVESGGGVVQPGRSLRLSCAASGFTFSNHGLHWVRQPPGKGLEWVAVVSKDGTNEHYADSVRGRFTISRDNSKNTLYLLMKSLRLEDTAVYYCAREGYCGDDRCYSGQPDYWGQGILVTVSS
VL: EIVLTQFPATLSLSPGERATLSCRASQSVGRYLAWYQQKPGQAPRLLIYDSSNRATGVPARFSGSGSGTDFTLSISSLEPEDFAVYFCQQRSHWPPLTFGGGTKVEIK
notes: also called antibody 3-25; clone 3-25
Q: Which “EC50 Neutralizing” value [1] does the source give for B1 here?
A: 0.3 µg/mL

Q: And the EC50 (CMV virions)?
A: 0.04 µg/mL

Source: patent US11230591 (Merck Sharp & Dohme, dated 2022)
